Experimental data reported in article PMC11659164, “Inceptor binds to and directs insulin towards lysosomal degradation in β cells” (Nature Metabolism, 2024).
Values belong to the molecule of their own block, whether it stands above or below them.

Key:
[1] = biological target: His-tagged inceptor ectodomain (human) (UniProt Q6UXG2); assay: native MS; charge detection mass spectrometry (CDMS), Orbitrap Q Exactive UHMR; inceptor ECD-His (5 µM) alone or with insulin at 1:6 and 1:20, or with proinsulin; 150 mM ammonium acetate, pH 3–7; 37 °C for 30 min
[2] = biological target: inceptor–HaloTag fusion protein (FRET experiments, INS-1E cells) (human) (UniProt Q6UXG2); assay: FRET or BRET; live INS-1E cells overexpressing inceptor–HaloTag labelled with TMR; 100 nmol/l INS-630 and 0, 10, 100 and 1,000 nmol/l proinsulin in the medium for 40 min; corrected FRET efficiency by confocal imaging
[3] = biological target: the molecule itself; assay: native MS; charge detection mass spectrometry (CDMS), Orbitrap Q Exactive UHMR; inceptor ECD-His (5 µM) alone or with insulin at 1:6 and 1:20, or with proinsulin; 150 mM ammonium acetate, pH 3–7; 37 °C for 30 min

N for each inceptor dimer [1]: 1
stoichiometry N [1]: 1
Molecule: bovine proinsulin (ligand)

reduction of the FRET signal of inceptor to INS-630 at a 1:10 molar ratio of proinsulin to insulin [2]: 50%
Molecule: proinsulin (unlabelled, added to the medium in the FRET experiments) (ligand)

B1: His-tagged inceptor ectodomain (domain or fragment, human, UniProt Q6UXG2 42-910, looked up)
chain: TGPELHACKESEYHYEYTACDSTGSRWRVAVPHTPGLCTSLPDPIKGTECSFSCNAGEFLDMKDQSCKPCAEGRYSLGTGIRFDEWDELPHGFASLSANMELDDSAAESTGNCTSSKWVPRGDYIASNTDECTATLMYAVNLKQSGTVNFEYYYPDSSIIFEFFVQNDQCQPNADDSRWMKTTEKGWEFHSVELNRGNNVLYWRTTAFSVWTKVPKPVLVRNIAITGVAYTSECFPCKPGTYADKQGSSFCKLCPANSYSNKGETSCHQCDPDKYSEKGSSSCNVRPACTDKDYFYTHTACDANGETQLMYKWAKPKICSEDLEGAVKLPASGVKTHCPPCNPGFFKTNNSTCQPCPYGSYSNGSDCTRCPAGTEPAVGFEYKWWNTLPTNMETTVLSGINFEYKGMTGWEVAGDHIYTAAGASDNDFMILTLVVPGFRPPQSVMADTENKEVARITFVFETLCSVNCELYFMVGVNSRTNTPVETWKGSKGKQSYTYIIEENTTTSFTWAFQRTTFHEASRKYTNDVAKIYSINVTNVMNGVASYCRPCALEASDVGSSCTSCPAGYYIDRDSGTCHSCPTNTILKAHQPYGVQACVPCGPGTKNNKIHSLCYNDCTFSRNTPTRTFNYNFSALANTVTLAGGPSFTSKGLKYFHHFTLSLCGNQGRKMSVCTDNVTDLRIPEGESGFSKSITAYVCQAVIIPPEVTGYKAGVSSQPVSLADRLIGVTTDMTLDGITSPAELFHLESLGIPDVIFFYRSNDVTQSCSSGRSTTIRVRCSPQKTVPGSLLLPGTCSDGTCDGCNFHFLWESAAACPLCSVADYHAIVSSCVAGIQKTTYVWREPKLCSGGISLPEQRVTICKTIDFWLK
notes: signal peptide in the construct; ectodomain of human inceptor (KIAA1324), Uniprot entry Q6UXG2, residues 1–910; Seen as monomer and, prevalently, as dimer by CDMS; also called inceptor ECD-His; inceptor ECD-6×His; source: HEK293 (pCDNA3-inceptor ECD-6×His), purified
stoichiometry N [3]: 2
